Results as given in the supplement of paper PMC10567573.

B1: SFRS1 (parent)
chain: YSPRRSRGSPRYSPRHSRSRSRT

Variants of: B1
Assay: protein stability index of a GFP-peptide fusion (GPS, HEK-293T) (PSI 1-6); higher = more stable
Settings: c terminus: native
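Also: lentivirally expressed fusions sorted by FACS into six bins by GFP to DsRed ratio, PSI derived from sequencing read proportions per bin multiplied by bin number.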

Protein stability index: each site, then its substitutions
S19: H 3.89; I 3.8; M 2.9; E 3.14; V 3.73; Y 3.96; T 3.68; N 4.23; L 3.79; D 3.75; C 3.71; F 3.75; P 4.39; K 3.88; G 3.95; Q 3.89; R 3.55; A 2.98; W 3.76
H16: T 4.27; F 3.83; E 3.47; A 4.81; D 4.05; Q 4.02; G 4.31; L 4.35; Y 4.45; I 3.95; M 3.95; V 3.93; C 3.96; P 4.35; W 3.14; S 4.5; N 4.1; K 4.35; R 4.5
P14: W 3.22; R 4.48; Y 3.64; K 4.57; S 3.54; F 3.21; V 4.03; H 4.16; A 4.03; D 3.46; G 4.46; L 3.56; I 4.15; N 4.28; E 4.04; T 3.89; M 3.52; C 1.97
S21: K 3.79; A 3.41; V 3.49; Q 3.62; R 4.2; M 3.94; P 4.3; H 3.79; I 3.28; T 3.34; D 3.79; N 3.98; W 4.19; L 3.23; G 2.67; E 3.8; C 3.06; Y 4; F 3.95
R15: Y 3.06; I 3.05; T 2.58; C 2.64; V 2.65; K 3.98; Q 3.39; G 3.9; S 3.82; H 4.39; F 2.17; D 3.16; M 3.48; P 2.12; A 3.36; E 3.56; N 3.34; L 3
S17: M 4.06; F 4.13; Y 3.6; Q 4; E 3.9; V 3.73; N 3.81; C 4; L 3.69; K 4.35; G 3.53; D 3.75; A 4.15; H 3.77; R 4.49; T 4.05; P 4.19; W 3.69; I 4.04
S13: Y 3.13
R22: Q 4.06; T 3.97; M 3.8; H 4.14; C 3.62; S 3.5; F 3.58; N 3.46; A 2.02; K 3.77; I 3.8; E 4.25; P 4.04; L 4.25; G 3.27; D 3.85
R20: E 4.48; Q 4.04; I 3.69; A 3.68; K 3.85; V 3.66; G 3.79; W 1.77; H 4.12; F 2.71; N 4.44; P 3.81; L 4.08; D 4.36; Y 2.9; T 3.6; C 3.49; S 4.21; M 3.4
R18: H 3.28; N 3.5; Y 3.07; Q 3.27; K 2.94; L 3.44; C 2.61; T 3.46; S 2.9; A 3.64; G 3.27; E 2.44; V 3.68; P 2.52; F 2.42; M 2.87; D 2.77; I 3.43; W 2.93
